Results taken from a protein production outcome set (Wang et al. 2014).

Experiment: label from the status in PepcDB records

Q: Which protein production does the source give for “MAQTQTFRRTCFLLAIFILISVSGIGTASEFRVWPGQSIQDAVDSASPGDIILVESGEFNESIRVNKENLTIESASGNPDDIFIAGDTPISYVFEVVANDVKINFFSITDGRCGIFLNNVENCVINGNKISNQEAGIYLLNSRNNLLTNNMVYSNEDCGLKLLASSENIIYGNYFDNVENARDNRFNVWNNSKGNYWSDYGGTDENGDGIGDTPYAINPEVGSMDYRPLIEYSQEAPILPKALFTSDVTEGYAPLVVRFKDFSEDAASRLWDFGDGNFSSYPNPQHTYLNEGTYVVSLTVSNENGSDSASVTVYVRDASELAGPMLPKAQFIYNTTSGHIPLVIKFVDISENADCVTWYFGDGKTSCCPEPEHTFCCPGSYTVSLAAINENGTSSASIVVNVLPAESVESSEDTENSANTGSGSDKNNACNIVNETDADASEKAGDPELITRSENTDSLGNSIIEYASDTTDKFADAENSINAEATENSESDSNGGGEGTGTARIIHREELEAIKDSVISTASSNILKETERALENETLKVQKNVEDFVDDSLPESVGDSLPEMEQRIAPWIPSFLGLAGVIFIVSVMKRGRRRRQK” here?
A: failed

Q: With “MDIVISGGTGLIGRAITEIQGNTYNVITRGPSRTDGNINLVNWNDLRKIRHCDVVINLAGYNIGSKRWNPKIKEEIIRSRIESTRRMVEFISSLDSKPEAFLSGSAIGYYGYGENTVFDENSPPGTGFLAELANAWEDEALKASRYTRTVILRTSNVLSSSGGFLARIMNSRSRRVYYFGDGDQPVSWIHIKDYVNAVKFLMENKDISGPVNMAAPSPVSFADLAHAIAREKGYKEMKIPEFIGKLILGSEMYRELMSGQRVAPKKLTGSGFSFQYPDLESAIKNLLEHHHHHH” as the sequence, how does the protein production read?
A: failed

Q: With “MSGWYELSKSSNDQFKFVLKAGNGEVILTSELYTGKSGAMNGIESVQTNSPIEARYAKEVAKNDKPYFNLKAANHQIIGTSQMYSSTAARDNGIKSVMENGKTTTIKDLTLEHHHHHH” as the sequence, how does the protein production read?
A: not failed

Q: Which protein production does the source give for “EQQGKFDWMLRDLYDGVPGIEMIVVLSADGLRIARYSGDPDAADRVAAACAGLQSLASAVSQEIPTSDGDMKMVLIEMNGGYFYLMAAGPNAYLAVLSDVRCEPGRMGLSMADLVARIGPHLTSPARR” here?
A: failed

Q: With “MKTIVIEDKQRIESIILQADACFVGITDLEGNPYVVPMNFGYENDTLYLHSGPEGGKIEMLQRNNNVCITFSLGHKLVYQHKQVACSYSMRSESAMCRGKVEFIEDMEEKRHALDIIMRHYTKDQFSYSDPAVRNVKVWKVPVDQMTGKVFGLRADEKP” as the sequence, how does the protein production read?
A: not failed

Q: Which protein production does the source give for “SPMANSGPLCCTICHERLEDTHFVQCPSVPSHKFCFPCSRESIKAQGATGEVYCPSGEKCPLVGSNVPWAFMQGEIATIL” here?
A: not failed

Q: Which protein production does the source give for “MSRDTERYPVKHANSLWQIYKTVPFWKVVKNFVVIQLARYTPFVSVKNWLYRTFLKMDVGEKTAFALMVMPDIMFPERISVGRNSIIGYNTTILAHEYLIEEYRLGDVIIGDEVMVGANTTILPGVTIGDRAIIAAGTVVHKNVPPGAFVGGNPMQVIKQLEHHHHHH” here?
A: failed

Q: With “MSYVPPHKRLENVALRASSVPPSLLKKHNKNVGSTNTKIIYANGYISRWFLVGSDPEDSNFQLVPGSSEWRKDAEEKSLVILAKSDLGKLENPWLWVTEKVEDDIIMGFDRAKKTLLGYGGSEDVKLRLIARFGTLRDGPLTKSTLEKLKKMFRTNVPKSYVENVGYRAVHKMGFCVEETKELYHVKVSDNTRPDVTISCKCMAELNALRHLNLDVSCLDQDLDMRLMVDSKRTLTNLSENEITNLKELTDSAVVDPTVKGGLKWPLGKSSCADRYIVCGVWHTVTTTYINQTMRLQIREADRYDFRTGVGGTSSEVNFKLKALSTILLKEEDVERKCVSDMLKDCLKAVWEYFLKEV” as the sequence, how does the protein production read?
A: failed

Q: Which protein production does the source give for “SSALSRNGSFITKEKKDTVLRQVRLDPCDLQPIFDDMLHFLNPEELRVIEEIPQAEDKLDRLFEIIGVKSQEASQTLLDSVYSHLPDLL” here?
A: not failed

Q: Which protein production does the source give for “MVKCMKPGKAVILLQGRYTGKKAVIVKSFDDGTVEKKYGHCLVAGLKKYPSKVIRKDSAKKTAKKSRVKCFFKVINYQHVMPTRYTLDLDLKNVVSADAISSKDKKVTALKEAKAKFEERFKTGKNRWFFTKLRF” here?
A: failed

Q: For “GKTFPDVPADHWGIDSINYLVEKGAVKGNDKGMFEPGKELTRAEAATMMAQILNLPIDKDAKPSFADSQGQWYTPFIAAVEKAGVIKGTGNGFEPNGKIDRVSMASLLVEAYKLDTKVNGTPATKFKDLETLNWGKEKANILVELGISVGTGDQWEPKKTVTKAEAAQFIAKTDKQFGTE”, which protein production is on record?
A: not failed

Q: With “MSIEPDGTVNRPEENIHLLQLHDSPVMRWLYLSIGMTALFMGILGIFLPILPTTPFILLAAGCFARSSERFHSYLLNHRIAGPIIREWCEYRSVARHVKRWAYLVMALSFGSSILIVSSWWLKGMLALLAMILFTFIWRLPVRDQSR” as the sequence, how does the protein production read?
A: failed

Q: For “MIRFTMMPGEDGDCLLLEYGDGTFLRRILLDGGRSGTYPRIRPTLAGLDGLVDVLVVTHVDQDHLLGVLALLNDPDRSVEFGDVWFNGFDHLLEFEGFGAQDGEKLTSALVEQKLPWNDAFGGLSVEVGRELVWFDDGSTVDVLSPDRGQLESLAPDWVKECAKHGLIPGRDPDEIPLVPGFEHFGGVNVEELAARPFRPDTSKTNLTSIGLLFEFEGKRIILTGDADDRRLVRSIRPRAEAEGGRLHVDVLKVAHHGSDHNLSKDLLDLIDCDRYLISTSGARHDHPNAIAVARILKHGGAKKEIVFNYRDRAAIWDVDSLKDRFGYTVTAPAPDAEDGFVSFEL”, which protein production is on record?
A: failed

Q: Which protein production does the source give for “PWQHFIIGSLFGWVHKETKLRRFKEALIFMGRKNGKTTTISGVANYAVSQDGENGAEIHLLANVMKQARILFDESKAMIKASPKLDKNFRTLRDEIHYDATISKIMPQASDSDKLDGLNTHMGIFDEIHEFKDYKLISVIKNSRAARLQPLLIYITTAGYQLDGPLVDMVEAGRDTLDQIIEDERTFYYLASLDDDDDINDSSNWIKANPNLGVSINLDEMKEEWEKAKRTPAERGDFITKRFNIFANNDEMSFIDYPTLQKNNEIVSLEELEGRPCTIGYDLSETEDFTAACATFALDNGKVAVLSHSWIPKHKVEYSNEKIPYREWEEDGLLTVQDKPYIDYQDVLNWIIKMNEHYVVEKITYDRANAFKLNQELKNYGFETEETRQGALTLSPALKDLKEMFLDGKIIFNNNPLMKWYINNVQLKLDRNGNWLPSKQSRYRKIDGFAAFLNTYTDIMNKVVSDKGEGNIEFISIKDIMR” here?
A: failed

Q: With “MSNPLGELVKALEKLSFKPSDVRIYSLLLERGGMRVSEIARELDLSARFVRDRLKVLLKRGFVRREIVEKGWVGYIYSAEKPEKVLKEFKSSILGEIERIEKMFTD” as the sequence, how does the protein production read?
A: not failed

Q: For “INDKLLVQTIKKALFGLRYQRAKKDIQEKDTMISVVADNSPAGICLFGDNGIIYANKALETITGYSKSELIGGSLLDIIQSDSKRLSERINLSLDSACNLEKYSEIRIKTKTGKIRYIDLIANSVEFKEGYVCIANMIDV”, which protein production is on record?
A: failed

Q: With “MSLNGKLDFSNRQARILYNKAIAKALFGLDIEYHPKGLVTTPISRYIFLKTFLRGGEVALEIGTGHTAMMALMAEKFFNCKVTATEVDEEFFEYARRNIERNNSNVRLVKSNGGIIKGVVEGTFDVIFSAPPYYDKPLGRVLTEREAIGGGKYGEEFSVKLLEEAFDHLNPGGKVALYLPDKEKLLNVIKERGIKLGYSVKDIKFKVGTRWRHSLIFFKGISEGHHHHHH” as the sequence, how does the protein production read?
A: not failed

Q: With “MKNIVPPADIILNMLNEKPGADLDLLDFYKGYIRRASIEPSYSEEGFDKGKHINEDLRQEIEIAFLKGLVSLRHNICKKGSTVLIIVPSKSWFDLEHHHHHH” as the sequence, how does the protein production read?
A: failed

Q: Which protein production does the source give for “SLKGKIEWVRVSAVVHSTEDREKVGEAISTLFPFEFEIAVSKAKGHYGNPMEYLEVELTKSSEIKKFWKNLLELLGEQAEEILSTLEDRIDEQNVLHIRIDKQKAYLGEVSLTSGGDPIAVKLRLVTYPSKREKVIEFARELCTIS” here?
A: not failed

Q: With “MTRAQPEPVQVVKQRRDAALRALVSGVPYITYLGIQFDRRGDELTAVLPFDEKLIGNPMLPAIHGGVTAAFLEVASIIELSWSVLWHEMEQGRLDPDQIEARLPRLPKTIDFTVDYLRSGLPRDAYARARVNRSGRRYASVHVEAWQDNRLRPFAQATGHFLMPARNDLEHHHHHH” as the sequence, how does the protein production read?
A: not failed

Q: For “MPFERFVQTGRIAKASAGPLKGRLVAIVDVIDQNRVLVDGPLTGVPRQEYRLNNLHLTKYRIKFPYTAPTRIVRKAWTESDLKAQWKVSPWSVKAQNICKRSSLNDFDRFKLRYAKRQRNKLLTIAFNTLKKRTKADGTPRVLKKDRRERLRAEKAKGGKKAAAKK”, which protein production is on record?
A: failed

Q: For “MQRKGDTPATLDLFADQTPQPRRDEQIGPGSWLFSGFALPAMPTLLLALEQTLGHSPFRHMLTPGGLSMSAALSSCGPLGWITDRHGYRYSDVDPQTGQPWPAMPDAFMQLAQSAALAAGYRGFVPDACLINRYIPGAKMSLHQDKDEHDHRWPVVSVSLGIPAIFQFGGMQRSDKTRRISLFHGDVVVWGGEDRLRFHGILPIKQAEHPLLGEQRINLTFRKAGRDSLEHHHHHH”, which protein production is on record?
A: not failed

Q: For “MASGSMSSYGSGSWTVKQNKAFERALAVYDQDTPDRWHNVARAVGGKTPEEAKRQYDLLVRDIESIENGHVPFPDYKTTTGNSNRGRLRDEEKRMRSMKLQ”, which protein production is on record?
A: failed

Q: For “MPLTPGTLLAGRYELLALLGEGGSAQVYRAQDGLLGREVALKVMHDYLPESDRSRFLREVRTLARLTHPGVVPVLDLGQEPEAGRPFFTMPLLTGGPITRLGPLEDAPGPLARFLTAAAFASRALHHVHSHGIVHRDLTPGNVLLDDTGLPRIMDFGLVALSEQTRHLTRSGVTLGTPAYMAPEQAKGGGVDARSDLYALGAVLYRVACGSPPFVGDSDQSVLYQHVYEPVPDPRDLNPAVPDAVARVLLWLLAKRADRRPQSGAALAHLWALARRDLWTTHARGQYRGGRARTGEHPDGPARVSDMQELWSVALPGEVTWPAAVVGEGDLVAVGTRGGQLVLTHTSGRPFATYAARDEVTAPATLIGGHVLYGAWDGTLRRVELQSGSEVWRHQARAEFTGAPTVWGGRLLAPSRDGHLHALSLRTGELAWAYRAGGSLAASPLVWAGAALQCDETGWLHALDARSGTPLWKVEVGTVHATPALLPGPPGTATLVIATWEGEVHAIGLEVQNGRAALAGEDAIRWTYDVEDEVWASPALTALDLPPDSGAAPDASAAPGGVVVVAGWGGKVRGLRLADGEDLWERTLDGRVTASPVISAGLVFLATEGGELLALDVRNGEVRWTCRERSGVQATPLAASGTLYVAFMDGTLRAYRNAHPEWRSEQEG”, which protein production is on record?
A: failed

Q: For “MRKNEYVNLPVICLVGPTASGKSGLAVRVCRRLYVDEHPAEIINTDSMVVYRGMDIGTATPTLREQRTVVHHLVSILDVTVPSSLVLMQTLARDAVEDCLSRGVIPVLVGGSALYTKAIIDEMSIPPTDPEVRARWQEKLDAEGPRVLHDELARRDPKAAESILPGNGRRIVRALEVIDLTGSFTATIPDGTLHWPKTVQMGLELSRKDIDQRIADRVDQMWAYGFVDEVRSLANVGLREGLTASRALGYRQVLEYLNGDYDEDEARRRTIIGTRRFARKQLMWYRRDDRIEWFNALAPDLDDRVVARVLTALTTDEED”, which protein production is on record?
A: failed

Q: With “MADQLIEEVKQLIIDALRIEGMTPAEIDTDAPLFGEGLGLDSIDALQLVVAMEKQYGVVVPDAATGTKVFQSVRTVADFVAENRKLEHHHHHH” as the sequence, how does the protein production read?
A: failed

Q: For “MKEIALLAIARYGDLIQTTPLVRALRRAHPGARITAIVEDRFCGILPLLPGIDRTIVLNKQDIAWDIATGDSPLVPYLKMDEFVRKLEEGSYDLLVNITCSRLSAFFASCVTSRRRTGISADEAGERNIVTLEHHHHHH”, which protein production is on record?
A: failed

Q: For “MLTLPAPEPIAHMEVTSYRAGVQGGSGLWRGQAVYVKTLVSDDPDRVAMFHHEGAVAARLSHPLVTPLLAHTPNQLIFPLLRGGTLRDLVRCGPLDADAATQVTWGVLQAVSHLHGRGVTHHDLKPENVLLIGGQSQVEAVRLIDFGMSHAAGLPLDIHSGTRMGTPQFMAPEQFQGVRGDPRSDLYSVGVLLFDCLAGHPPYADALGWLVGISEERAAAPGPSALHPLMLRAIQRDRDSRPQSAAEMLAALADARQQLGLPELEHIAPEGQTAGENA”, which protein production is on record?
A: failed
